In the supplement of paper PMC12764529:
± gives the half width of the 95% confidence interval.

How the values were obtained:
[1] = folding stability dG unfold from chymotrypsin proteolysis; higher = more stable
Method: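 Folding stability of de novo designed mini-proteins (<80 aa, no Cys; designed by TrROS, TrMRF, ProteinMPNN and the joint model) was measured by cDNA display proteolysis with trypsin and chymotrypsin. Each protease was used at 11 concentrations in a threefold dilution series plus a no-protease condition. K50 was inferred by Bayesian fitting of sequencing counts, and dG unfold was derived against a sequence-predicted unfolded-state K50 (Tsuboyama et al. method). Sequences shown include variable-length N-terminal GS-type padding (SAGGSAGG...) inside a display construct carrying a PA tag. Rows were kept only if the AF2 dimer inter-PAE was >15, to exclude likely homo-oligomers.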

[2] = folding stability dG unfold (combined trypsin and chymotrypsin); higher = more stable
Method in brief: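 Digests were run with trypsin and chymotrypsin at 11 concentrations in threefold dilutions, plus a no-protease condition, on designed mini-proteins in a PA-tagged cDNA display construct. The mini-proteins were under 80 residues, had no cysteine, and were kept only when AlphaFold2 dimer inter-PAE was above 15. After sequencing, Bayesian fitting of the counts gave K50, from which unfolding free energy was derived against a sequence-predicted unfolded-state K50 and a shared folded-state K50, per protease or combined.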

| Sequence | folding stability dG unfold [1] [kcal/mol] | folding stability dG unfold [2] [kcal/mol] |
| --- | --- | --- |
| SAGGSAGGSAGGSGPPHMRTTNEVTITLDGTVVSGSTPLPESLPPGVETYTTETYLPPLSAGGSAGGSAGGS [r4_436_JUSTAS] | -0.308 ± 0.13 | < -1 |
| SAGGSAGGSAGGSGPPLRTEERVEEVTLPNGERLLVETTTLTDPVTGETTVSRSIRLPLSAGGSAGGSAGGS [r4_445_JUSTAS] | 0.53 ± 0.1 | -0.38 ± 0.19 |
| SAGGSAGGSAGGSKIEVYKEPNKITIVIHPGNKPLVFTATEPIPIETLIKKAREAFPDASAGGSAGGSAGGS [r4_191_TrMRF] | 0.516 ± 0.12 | -0.0455 ± 0.13 |
| SAGGSAGGSAGGSLVSTSPLPSSSTLVTEKGPSPEVTVTVVTVKPGGSRSVTTLPVSESSAGGSAGGSAGGS [r10_140_JUSTAS] | 0.474 ± 0.057 | -0.143 ± 0.12 |
| SAGGSAGGSAGGSMETVEVTEVSFDPSKGTRFVKTTVTRKDEKGNWVEKEEWITEPVLGSAGGSAGGSAGGS [r4_85_JUSTAS] | 0.338 ± 0.059 | -0.0805 ± 0.12 |
| SAGGSAGGSAGGSMKTEEVVYVKTPDAWVRLKKEEAEKLEKETGVKIERESFTLPAGALESAGGSAGGSAGG [r7_185_JUSTAS] | 0.89 ± 0.17 | 0.405 ± 0.24 |
| SAGGSAGGSAGGSMKTITFTDPAEIAAAIEEAEKEGVEEVVLLTPEGKTRVIPKGVPLPSAGGSAGGSAGGS [r4_260_JUSTAS] | 0.516 ± 0.083 | -0.00846 ± 0.37 |
| SAGGSAGGSAGGSMKTTTLTVKPEELEEVKKKLTPPDKTVTIKSVTKDPKEDLVTLTVESAGGSAGGSAGGS [r10_1030_JUSTAS] | -0.517 ± 0.59 | -0.923 ± 0.65 |
| SAGGSAGGSAGGSMVYRVVLEPESGERVEFEVTYDEAEELLEKLPPNARLRIEPVPEDASAGGSAGGSAGGS [r4_63_TrMRF] | 0.265 ± 0.13 | -0.0741 ± 0.17 |
| SAGGSAGGSAGGSSSMTSEKVTEKTEFDKETGKKYKIITQRISPSSVGNSSLKTEIKLESAGGSAGGSAGGS [r10_535_JUSTAS] | -0.0486 ± 0.25 | -0.735 ± 0.61 |
| SAGGSAGGSAGGSSVVIVADSAEEAKAALKELGIKDAKVVPLKPVKVFTDEQLKELKKKSAGGSAGGSAGGS [r4_101_TrROS_Hall] | 0.943 ± 0.039 | 0.276 ± 0.28 |
| SAGGSAGGSAGGSVEIRDARIELGDNTLRIEISFPDGGTRRIEIEVEPVPPLPPSLLDRSAGGSAGGSAGGS [r4_372_TrMRF] | 0.109 ± 0.11 | < -1 |
| SAGGSAGGSAGGSWMRMEAEVRHPNKRDVTIPIPYRSKDGEPDMKERAKEFARELAKDYSAGGSAGGSAGGS [r4_168_TrROS] | -0.315 ± 0.21 | < -1 |
| SAGGSAGGSAGGTVKELMKKLPFGAQIEIDEIEHDKGRIEIPIRVENMPPEWREKLRKLSAGGSAGGSAGGS [r10_733_TrROS] | 0.0365 ± 0.15 | -0.305 ± 0.23 |
| SAGGSAGGSAGGVAEWIQEQGFKVKDIPVPRPPNGNPWVKVEVEHDGGKRTYEIPLDEISAGGSAGGSAGGS [r10_35_TrROS] | 0.487 ± 0.12 | 0.0288 ± 0.14 |
| SAGGSAGGSAGGVRPNPNGQYEVTVTIRNPGGGNKREKTINATPDEIEELQDQGFEIEPSAGGSAGGSAGGS [r10_749_TrROS] | -1.08 ± 0.35 | < -1 |
| SAGGSAGGSAGGVYKVEIEIGDAPRTLVVENAAPEEIRAFLEHPEVRRARVEPLSPEELGSAGGSAGGSAGG [r7_502_TrMRF] | 0.216 ± 0.12 | -0.152 ± 0.11 |
| SAGGSAGGSAGGYDPNDKPVVEVPIELPPNDKKNPDRMKENAEEIANPLQEKGKPDRIVSAGGSAGGSAGGS [r10_723_TrROS] | 0.907 ± 0.11 | 0.475 ± 0.24 |
| SAGGSAGGSAGIKIYAPGFPGMPVEIERDPDEPNVIKIKIKGPDNGEPQERTFPADDLEISAGGSAGGSAGG [r17_341_TrROS] | 0.526 ± 0.074 | -0.169 ± 0.28 |
| SAGGSAGGSAGIKKQRNPDGQERETIEIRTKNQPIPITFPPDDNADDLANNFGLPADDIRSAGGSAGGSAGG [r11_1039_TrROS] | 0.682 ± 0.039 | 0.28 ± 0.079 |
